Test results from paper PMC11589570 (Nature Communications, 2024).
No end group written: not given here.

What was measured:
Settings in all cases: both partners purified
LC3B_(1-120) = LC3B_(1-120) (human, UniProt Q9GZQ8 1-120); assay: fluorescence polarisation; tracer displacement: 30 nM Cy5-labelled p62 LIR probe with 4 µM LC3/GABARAPs, small-molecule compounds titrated from 20 µM to 20 nM; same assay buffer; 1 h at room temperature
LC3C_(1-126) = LC3C_(1-126) (human, UniProt Q9BXW4 1-126); assay: as above
GABARAP_(1-116) = GABARAP_(1-116) (human, UniProt O95166 1-116); assay: as above
GABARAPL1_(1-117) = GABARAPL1_(1-117) (human, UniProt Q9H0R8 1-117); assay: as above
GABARAPL2_(1-117) = GABARAPL2_(1-117) (human, UniProt P60520 1-117); assay: as above
LC3A_(1-120) = LC3A_(1-120) (human, UniProt Q9H492 1-120); assay: fluorescence polarisation; direct titration: 30 nM Cy5-labelled p62 LIR probe, purified LC3/GABARAPs titrated from 55 µM to 600 pM; 50 mM HEPES pH 7.5, 150 mM NaCl, 5 % glycerol, 1 mM TCEP, 0.05% TWEEN20; 1 h at room temperature; 384-well plate

Measured: binding result

B1: fluorescently labeled p62 LIR probe (SDNSSGGDDDWTHLSSK-Cy5) (peptide)
peptide: SDNSSGGDDDWTHLSSK-Cy5
notes: also called p62 LIR peptide linked to a Cy5 fluorophore; tracer
binds: all assays above
